Source: the supplement of paper PMC7877785
± gives the uncertainty stated by the source.

Test: self-splicing fitness, log relative to wild type (ln ratio); higher = more splicing; Tetrahymena group I intron in knt gene, E. coli kanamycin selection, DiMSum; sequences stand for … in CUCUCU…GGAGGGAAAAGUUAUCAGGCAUGCACCUGGUAGCUAGUCUUUAAACCAAUAGAUUGCAUCGGUUUAAAAGGCAAGACCGUCAAAUUGCGGGAAAGGGGUCAACAGCCGUUCAGUACCAAGUCUCAGGGGAAACUUUGAGAUGGCCUUGCAAAGGGUAUGGUAAUAAGCUGACGGACAUGGUCCUAACCACGCAGCCAAGUCCUAAGUCAACAGAUCUUCUGUUGAUAUGGAUGCAGUUCACAGACUAAAUGUCGGUCGGGGAAGAUGUAUUCUUCUCAUAAGAUAUAGUCGGACCUCUCCUUAAUGGGAGCUAGCGGAUGAAGUGAUGCAACACUGGAGCCGCUGGGAACUAAUUUGUAUGCGAAAGUAUAUUGAUUAGUUUUGGAGUACUCGUGGUCG
Method in brief: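 Pooled colonies went to amplicon sequencing on an Illumina HiSeq 2500 after six replicate transformations. The plates were LB agar with 100 μg/mL carbenicillin, 50 μM IPTG and 0.2% rhamnose, with or without 25 μg/mL kanamycin, incubated overnight at 37°C or 30°C. The E. coli BL21(DE3) library had all eight P1ex-region intron nucleotides randomised, the intron placed in the knt kanamycin-resistance gene on pET-22b(+). DiMSum fitness is the error-weighted combination of replicate fold changes, kanamycin against none, normalised to wild type.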

| Sequence | self-splicing fitness (ln) (30 °C) | self-splicing fitness (ln) (37 °C) |
| --- | --- | --- |
| UCUGAGCAAUAUUACGAAGG | -3.05 ± 0.21 | -0.953 ± 0.15 |
| UCUGAGCAAUAUUACGAGAC | -2.52 ± 0.17 |  |
| UCUGAGCAAUAUUACGAGCU | -2.99 ± 0.24 | -2.23 ± 0.47 |
| UCUGAGCAAUAUUACGAGGA | -3.8 ± 0.4 | -3.29 ± 0.42 |
| UCUGAGCAAUAUUACGAGUG | -3.98 ± 0.4 | -1.24 ± 0.22 |
| UCUGAGCAAUAUUACGAUAG | -3.28 ± 0.18 | -1.93 ± 0.18 |
| UCUGAGCAAUAUUACGAUCG |  | -0.514 ± 0.41 |
| UCUGAGCAAUAUUACGCAAU | -2.13 ± 0.16 | -2.97 ± 0.21 |
| UCUGAGCAAUAUUACGCAUA | -2.73 ± 0.17 | -1.19 ± 0.15 |
| UCUGAGCAAUAUUACGCGCA | -2.16 ± 0.3 |  |
| UCUGAGCAAUAUUACGCUGA | -1.89 ± 0.17 | -0.151 ± 0.15 |
| UCUGAGCAAUAUUACGGAUU | -3.51 ± 0.26 | -1.72 ± 0.23 |
| UCUGAGCAAUAUUACGGCCG | -2.7 ± 0.37 |  |
| UCUGAGCAAUAUUACGGCGU | -1.82 ± 0.1 | -0.983 ± 0.14 |
| UCUGAGCAAUAUUACGGGAU | -2.35 ± 0.18 | -2.54 ± 0.24 |
| UCUGAGCAAUAUUACGGGGU | -4.62 ± 0.32 | -2.28 ± 0.25 |
| UCUGAGCAAUAUUACGGGUA |  | -2.42 ± 0.34 |
| UCUGAGCAAUAUUACGGUCC | -2.51 ± 0.25 |  |
| UCUGAGCAAUAUUACGGUGU | -2.79 ± 0.19 | -1.84 ± 0.28 |
| UCUGAGCAAUAUUACGGUUC |  | -2.51 ± 0.4 |
| UCUGAGCAAUAUUACGGUUU | -3.14 ± 0.23 | -1.4 ± 0.24 |
| UCUGAGCAAUAUUACGUAUA | -2.36 ± 0.17 | -2.39 ± 0.18 |
| UCUGAGCAAUAUUACGUAUG | -3.07 ± 0.18 | -2.07 ± 0.17 |
| UCUGAGCAAUAUUACGUGUA | -2.67 ± 0.18 | -0.868 ± 0.13 |
| UCUGAGCAAUAUUACGUUGA | -1.89 ± 0.1 | -0.656 ± 0.085 |
| UCUUAGCAAUAUUACGAAGG | -2 ± 0.39 | 1.19 ± 0.23 |
| UCUUAGCAAUAUUACGAAGU | -1.65 ± 0.15 | -1.42 ± 0.27 |

| Sequence | self-splicing fitness (ln) (30 °C) | self-splicing fitness (ln) (37 °C) |
| --- | --- | --- |
| UCUUAGCAAUAUUACGAGGA | -2.34 ± 0.19 | -1.58 ± 0.19 |
| UCUUAGCAAUAUUACGAUGG | -0.765 ± 0.15 | 0.551 ± 0.15 |
| UCUUAGCAAUAUUACGAUGU | -1.95 ± 0.11 | -0.623 ± 0.13 |
| UCUUAGCAAUAUUACGCCCG | -1.07 ± 0.32 | -1.34 ± 0.34 |
| UCUUAGCAAUAUUACGCCGA | -2.03 ± 0.28 | -0.379 ± 0.38 |
| UCUUAGCAAUAUUACGCGAC |  | -3.07 ± 0.32 |
| UCUUAGCAAUAUUACGCGCU | -3.3 ± 0.47 | -3.27 ± 0.39 |
| UCUUAGCAAUAUUACGCGGU | -3.5 ± 0.2 | -2.76 ± 0.26 |
| UCUUAGCAAUAUUACGGAUA | -2.68 ± 0.25 | -2.18 ± 0.24 |
| UCUUAGCAAUAUUACGGCGC | -2.61 ± 0.39 |  |
| UCUUAGCAAUAUUACGGGAU | -3.65 ± 0.33 | -2.65 ± 0.36 |
| UCUUAGCAAUAUUACGUAGG | -1.26 ± 0.11 | 0.0819 ± 0.16 |
| UCUUAGCAAUAUUACGUAUG | -1.33 ± 0.15 | -0.892 ± 0.18 |
| UCUUAGCAAUAUUACGUAUU | -3.1 ± 0.28 | -3.54 ± 0.39 |
| UCUUAGCAAUAUUACGUGAC | -2.81 ± 0.18 | -3.32 ± 0.4 |
| UCUUAGCAAUAUUACGUGGG | -3.96 ± 0.23 | -2.21 ± 0.18 |
| UCUUAGCAAUAUUACGUGGU | -3.39 ± 0.16 | -3.1 ± 0.23 |
| UCUUAGCAAUAUUACGUUAU | -3.27 ± 0.28 | -2.3 ± 0.28 |
| UCUUAGCAAUAUUACGUUGA | -2.76 ± 0.22 | -1.94 ± 0.18 |
| UGAAAGCAAUAUUACGACAC | -2.11 ± 0.34 | -1.18 ± 0.4 |
| UGAAAGCAAUAUUACGACCU | -0.0194 ± 0.1 | 0.188 ± 0.12 |
| UGAAAGCAAUAUUACGACUU | -0.765 ± 0.12 | 0.423 ± 0.15 |
| UGAAAGCAAUAUUACGAGAU | -2.93 ± 0.14 | -2.18 ± 0.19 |
| UGAAAGCAAUAUUACGAGGU | -4.07 ± 0.31 | -1.72 ± 0.23 |
| UGAAAGCAAUAUUACGAUAA | -0.879 ± 0.11 | -0.129 ± 0.13 |
| UGAAAGCAAUAUUACGCACC | -0.796 ± 0.2 | -0.513 ± 0.26 |
| UGAAAGCAAUAUUACGCAGA | -1.68 ± 0.12 | -1.93 ± 0.15 |

| Sequence | self-splicing fitness (ln) (30 °C) | self-splicing fitness (ln) (37 °C) |
| --- | --- | --- |
| UGAAAGCAAUAUUACGCAUU | -3.13 ± 0.23 |  |
| UGAAAGCAAUAUUACGCCAC |  | -2.67 ± 0.48 |
| UGAAAGCAAUAUUACGCCCG | -0.527 ± 0.15 | -0.0303 ± 0.21 |
| UGAAAGCAAUAUUACGCGGC | -3.44 ± 0.33 | -2.07 ± 0.24 |
| UGAAAGCAAUAUUACGCGUG | -0.951 ± 0.049 | -0.284 ± 0.064 |
| UGAAAGCAAUAUUACGCUCG | -1.22 ± 0.14 | 0.141 ± 0.18 |
| UGAAAGCAAUAUUACGGACU | 0.219 ± 0.079 | 0.125 ± 0.094 |
| UGAAAGCAAUAUUACGGCGA | -0.22 ± 0.1 | -0.0348 ± 0.099 |
| UGAAAGCAAUAUUACGGUCC | -0.844 ± 0.072 | -0.196 ± 0.095 |
| UGAAAGCAAUAUUACGUAAC |  | -1.29 ± 0.25 |
| UGAAAGCAAUAUUACGUAAU | -3.71 ± 0.14 | -0.793 ± 0.11 |
| UGAAAGCAAUAUUACGUCCG | 0.111 ± 0.1 | 0.472 ± 0.14 |
| UGAAAGCAAUAUUACGUGGA | -2.89 ± 0.15 | -2.69 ± 0.18 |
| UGAAAGCAAUAUUACGUGGC | -3.37 ± 0.17 | -2.73 ± 0.25 |
| UGACAGCAAUAUUACGAACU | -0.592 ± 0.14 | 0.0955 ± 0.17 |
| UGACAGCAAUAUUACGAAUC | -3.49 ± 0.37 | -1.68 ± 0.31 |
| UGACAGCAAUAUUACGACCU | -1.09 ± 0.11 | 0.0765 ± 0.14 |
| UGACAGCAAUAUUACGACUC | -2.23 ± 0.17 | -0.483 ± 0.17 |
| UGACAGCAAUAUUACGAGAC | -3.79 ± 0.49 | -2.72 ± 0.46 |
| UGACAGCAAUAUUACGAGGC | -2.35 ± 0.23 | -2.95 ± 0.43 |
| UGACAGCAAUAUUACGAUCA | -0.329 ± 0.068 | 0.116 ± 0.089 |
| UGACAGCAAUAUUACGCAAA | -2.27 ± 0.18 | -1.73 ± 0.2 |
| UGACAGCAAUAUUACGCAAC | -2.25 ± 0.29 | -1.24 ± 0.25 |
| UGACAGCAAUAUUACGCCGC | -1.26 ± 0.32 |  |
| UGACAGCAAUAUUACGCGAU | -2.5 ± 0.15 | -1.46 ± 0.19 |
